In PMC12751049:

Assays:
[1] = molecular target: Complement 1q binding protein (C1qBP), recombinant His-tagged, residues 75-282 (human); experiment: SEC-MALS; Superdex 200 10/300 GL, 20 mM Na2HPO4, 20 mM NaCl, pH 6.5; proteins at 2-4 mg/ml alone or CypD:C1qBP mixture at 2:1 molar ratio; eluted complex checked by SDS-PAGE
[2] = molecular target: Complement 1q binding protein (C1qBP), recombinant His-tagged, residues 75-282 (human); experiment: dynamic and static light scattering (DLS/SLS); C1qBP at 0.8 mg/ml, 20 mM HEPES pH 7.4, 37°C, with 2.5 mM CaCl2; trimer to dimer of trimers

| Substance | stoichiometry N (CypD per C1qBP trimer) [1] | stoichiometry N [2] | stoichiometry N [1] |
| --- | --- | --- | --- |
| Cyclophilin D (CypD), recombinant, residues 44-207 (enzyme) | 1 | – | – |
| Complement 1q binding protein (C1qBP), recombinant His-tagged, residues 75-282 (natural protein) | – | 6 | 3 |
